In patent publication US5683884 (ZymoGenetics, Inc., dated 1997):
Bridges are numbered along the chain shown (N, C = ends). Where no end group is shown, it is not given here.

Legend:
[1] = biological target: T1, human calcitonin receptor (cDNA clone pHollex, from T-47D breast carcinoma cDNA), expressed in transfected BHK cells (human)
T1 sequence: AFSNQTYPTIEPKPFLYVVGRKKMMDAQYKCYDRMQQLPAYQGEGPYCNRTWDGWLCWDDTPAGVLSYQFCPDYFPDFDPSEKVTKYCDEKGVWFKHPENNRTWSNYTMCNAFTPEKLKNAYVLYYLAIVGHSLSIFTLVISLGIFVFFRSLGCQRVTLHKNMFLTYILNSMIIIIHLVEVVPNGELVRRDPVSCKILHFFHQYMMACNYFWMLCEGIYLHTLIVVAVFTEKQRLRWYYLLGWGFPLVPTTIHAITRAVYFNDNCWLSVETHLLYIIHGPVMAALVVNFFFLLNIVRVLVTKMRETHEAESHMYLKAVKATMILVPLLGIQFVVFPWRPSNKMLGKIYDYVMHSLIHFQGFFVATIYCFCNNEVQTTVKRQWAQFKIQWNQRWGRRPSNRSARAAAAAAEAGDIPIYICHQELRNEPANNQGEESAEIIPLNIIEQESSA

[2] = biological target: T2, human calcitonin receptor (cDNA clone pHollex, from T-47D breast carcinoma cDNA), expressed in transfected … (human); test: 125I calcitonin competition binding on whole cells, clone Hollex1, average
T2 chain: T1 sequence
Procedure: (§1) Clones Hollex1 and Hollex2 were tested for receptor-mediated ability to bind calcitonin using a competition assay. T47D cells were used as a positive control and BHK cells transfected with Zem1698 were used as a negative control.
(§2) The cells were plated at a density of 1×10^5 cells/well in a 24-well cell culture dish and allowed to grow for 48 hours at 37° C. and 5% CO_2 in growth medium (described in previous examples). The cells were rinsed in binding medium (500 ml RPMI 1640 (Sigma, St. Louis, Mo.), 1 mg/ml bacitracin (Sigma), and 1 mg/ml BSA (Boehringer Mannheim)) to remove the serum. Three hundred microliters of binding medium containing radiolabeled ^125I agonist and a serial dilution of unlabeled competitor (Table 1) were added to appropriate wells. The cells were incubated for 1.5 hours at room temperature, and then rinsed 3 times with PBS to remove unincorporated radioactivity. Five hundred microliters of 0.25N NaOH was added to each well to solubilize the cells. The samples were collected from each well and CPMs were counted on a gamma counter.

[3] = biological target: T2, human calcitonin receptor (cDNA clone …); test: 125I calcitonin competition binding on whole cells, clone Hollex2, average
Procedure: as §1, §2

[4] = biological target: T3, calcitonin receptor of T-47D human breast carcinoma cells (endogenous, positive control) (human, UniProt P30988); test: 125I calcitonin competition binding on whole T47D cells (positive control), average
T3 sequence: T1 sequence
Procedure: as §1, §2

[5] = biological target: T1, human calcitonin receptor (cDNA clone pHollex, from T-47D breast carcinoma cDNA), expressed in transfected BHK cells (human); remark: listed apart in the source

B1: salmon calcitonin (ligand)
peptide: CSNLSTCVLGKLSQELHKLQTYPRTNTGSGTP-NH2
modifications: disulfide 1-7; ends not checked; also: also used 125I-labelled as tracer
B1 showed an ED50 of cAMP induction (Hollex1) [1] of 0.07 nM, an ED50 of cAMP induction (Hollex2) [1] of 0.04 nM and an induction of cAMP (radioimmunoassay, scintillation proximity assay) (fold induction) [1] of 12. It also gave a Kd [2] of 0.5 nM, a Kd [3] of 0.3 nM and a Kd [4] of 0.6 nM. It also gave an ED50 of labeled inositol phosphate levels (Hollex1) [5] of 9.5 nM.
